# From the nanobody polyreactivity screen of Harvey et al. (2022)
# Test: yeast display, Sf9 membrane polyspecificity reagent, FACS + sequencing; frameworks hold sequencing errors
# Outline: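 After 36–48 hours of galactose induction, yeast (Saccharomyces cerevisiae BJ5465) displaying a synthetic nanobody library were stained at 4 °C for 1 hour with 10% biotinylated, detergent-solubilized Sf9 membrane reagent. Streptavidin microbeads enriched the stained cells before FACS sorting into low and high (top ~1%) gates on anti-HA and streptavidin fluorescence. Each clone's polyreactivity label reflects its gate of origin.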
row,Sequence,polyreactivity (PSR sort gate)
1,QVQLVESGGGLVQAGGSLRLSCAASGFTFYLYAMGWYRHAPGKERELVAAISVDGGSTYYADSVKGRFTISRDNAKNTVYLQMNSLKPEDTAVYYCAARLYGRYRYDYWGQGTQVTVSS,low polyreactivity
2,QVQLVESGGGLVQAGGSLRLSCAASGFTFYLYTMGWYRQAPGKERELVAAISWRGGGTYYADSVKGRFTISRDNAKNTVYLQMNSLKPEDTAVYYCATVRTYARNDYWGQGTQVTVSS,high polyreactivity
3,QVQLVESGGGLVQAGGSLRLSCAASGFTFYLYTMGWYRQAPGNESELVATITSDGGTNYADSVKGRFTISRDNAKNTVYLQMNSLKPEDTAVYYFNAASRRGSRKQAKYDYWGQGTQVTVSS,low polyreactivity
4,QVQLVESGGGLVQAGGSLRLSCAASGFTFYPYAMGWYRQAPGKERELVASISSRGGSRTYYADSVKGRFTISRVNEKNTVYLQMNSLKTEDSAVYYCAATYVGLYRGYFTLTYYYWGQGTPVTVSS,high polyreactivity
5,QVQLVESGGGLVQAGGSLRLSCAASGFTFYPYTMGWYRQAPGKERELVADITYDSTYYADSVKGRFTISRDNAKNTVYLQMNSLKPEDTAVYYCNATGYSVSRSAYWYGWYDYWGQGTQVTVSS,low polyreactivity
6,QVQLVESGGGLVQAGGSLRLSCAASGFTFYQNAMGWYRQAPGKEREFVAAISRRGGSTYYADSVKGRFTSSRDNAKNTVYLQMNSLKPEDTAVYYCAADYKRKSDGDYWGQGTQVTVSS,high polyreactivity
7,QVQLVESGGGLVQAGGSLRLSCAASGFTFYQYAMGWYRQAPGKEREFVAAISSSGSSTYYADSVKGRFTISRDNAKNTVYLQMNSLKPEDTAVYYCNAYFRNWRYSPGGYWGQGTQVTVSS,high polyreactivity
8,QVQLVESGGGLVQAGGSLRLSCAASGFTFYRNAMGWSRQAPGKERELVARIRGTGGRTYYADSVKGRFTISRDNAKNTVYLQMNSLKPEDSAVYYCARRYHYSLYGYWGQGTQVTVSS,high polyreactivity
9,QVQLVESGGGLVQAGGSLRLSCAASGFTFYRNAMGWYRKAPGKERELVAAISWSGDSTYYADSVKGRFTISRDNAKNTVYLQMNSLKPEDTAVYYCAKSRYTALTNHWSHDYWGQGTQVTVSS,low polyreactivity
10,QVQLVESGGGLVQAGGSLRLSCAASGFTFYRNAMGWYRQAPGKERELVAGISKRGGSTYYADSVKGRFTISRDNAKNTVYLLMNSLKPEDTAVYYCARGGYPGSAEYDYWGQGTQVTVSS,high polyreactivity
11,QVQLVESGGGLVQAGGSLRLSCAASGFTFYRNAMGWYRQAPGKERELVARISRGGSTNYADSVKGRFTISRDNAKNTVYLQMNSLKPEDTAVYYCNRDYYVGRYDYWGQGTQVTVSS,high polyreactivity
12,QVQLVESGGGLVQAGGSLRLSCAASGFTFYRNTMGWYRQAPGKERELVATITFSGTRTYYADSVKGRFTISRDNAKNTVYLQMNSLKPEDTAVYYCAADRPRRTKWGGGGYYWGQGTQVTVSS,high polyreactivity
13,QVQLVESGGGLVQAGGSLRLSCAASGFTFYRYALGWYRQAPGKERELVAAISQRGGTTYYADSVKGRFTISRDNAKNTVYLQMNSLKPEDTAVYYCAKDRYYYPGNYWGQGTQVTVSS,high polyreactivity
14,QVQLVESGGGLVQAGGSLRLSCAASGFTFYRYAMGWYRQAPGKERELVAAISRSGGSTSYADSVKGRFTISRDNAKNTLYLQMNSLTPEDTEVYYCATRNWYSLKDYYYWGQGTQVTVSS,high polyreactivity
15,QVQLVESGGGLVQAGGSLRLSCAASGFTFYRYAMGWYRQAPGKERELVAAITASGGSTYYADSVKGRFTISRDNAKNTVYLQMNSLKPEDTAVYYCAKGWVSYWRYKNEYWGQGTQVTVSS,high polyreactivity
16,QVQLVESGGGLVQAGGSLRLSCAASGFTFYRYAMGWYRQAPGKERELVAAITSAGSTYYADSVKGRFTISRDNAKNTVYLQMNSLKPEDTAVSYCNAVGYFSYRDRDSEYYYNYGSWGQGTQVTVSS,low polyreactivity
17,QVQLVESGGGLVQAGGSLRLSCAASGFTFYRYAMGWYRQAPGKERELVASISRNGGSTYYADTVKGRFTISRDTEKNTVYFLMNSLKPEDTAVYYCNTAFYPPTNFYWGQGTQVTVSS,high polyreactivity
18,QVQLVESGGGLVQAGGSLRLSCAASGFTFYRYAMGWYRQAPGKERELVATISASGGSTYYADSVKGRFTISRDNAKNTVYLQMNSVKPEDTAVYYFAVRYKSWYGFNYWGQGTQVTVSS,high polyreactivity
19,QVQLVESGGGLVQAGGSLRLSCAASGFTFYRYAMGWYRQAPGKERELVAVITGRGGTTYYADSVKGRFTISRDNAKNTVYLQMNSMKPEDTAVYYCAVQTHRSLDPYDYWGQGTQVTVSS,high polyreactivity
20,QVQLVESGGGLVQAGGSLRLSCAASGFTFYRYDMGWYRQAPGQERELVAAITNNGGNTYYADSVKGRFTISRDNAKNTVYLQMNSLKPEDTAVYYCAARTWGRYDYWGQGTQVTVSS,high polyreactivity
21,QVQLVESGGGLVQAGGSLRLSCAASGFTFYRYPMGWYRQAPGKETELVAAITKRGDRTYYADSVKGRFRISRDNAKNTVFLQMSSLKPEDTAVYFCASDPYYSVSYWLAYDYWGQGTQVTVSS,high polyreactivity
22,QVQLVESGGGLVQAGGSLRLSCAASGFTFYRYTMGWYRQAPGKERELFAAISARGVSTYYADSVKGRFTISRDNAKNTVYLQMNSLKPEDTAVYYCYVSRYDTWGQGTQVTVTS,high polyreactivity

row,Sequence,polyreactivity (PSR sort gate)
1,QVQLVESGGGLVQAGGSLRLSCAASGFTFYRYVMGWYRQAPGKERELVAAITGGGRTYYADSVKGRFTISRDNAKNTVYLQMNSLKPEDTAVYYCNKAVPAWGLYDYWGQGTQVTVSS,low polyreactivity
2,QVQLVESGGGLVQAGGSLRLSCAASGFTFYSNSMGWYRQAPGKERELVAAISSGGGTTYYADSVKGRFTISRDNAKNTVYLQMNSLKPEYTAVYYCAAGLSFFRSYSGFYYWGQGTQVTVSS,low polyreactivity
3,QVQLVESGGGLVQAGGSLRLSCAASGFTFYSYAMGWYRQAPGKERELVAAISWSGTRTYYADSVKGRFTISRDIAKNTVYLQMNSLKPEDTAVYYCAARGYRYGYGYWGQGTQVTVSS,high polyreactivity
4,QVQLVESGGGLVQAGGSLRLSCAASGFTFYSYAMGWYRQAPGKERELVATITSAGSTNYADSVKGRFTISRDNAKNTVYLQMNSLKPEDTAVYYCAAVYYYIYYWGQVTQVTVSS,high polyreactivity
5,QVQLVESGGGLVQAGGSLRLSCAASGFTFYSYDMGWYRQAPGKERELVAAITWSGGSTYYADSVKGRFTISRDNAKNTVYLQMNSLKPEDTAVYYCAAELFPLQHFWVAYATRRYDYWGQGTQVTVSS,low polyreactivity
6,QVQLVESGGGLVQAGGSLRLSCAASGFTFYTNAMGWYRPAPGKEREFVAAISFSGGTYYADSVKGRFTISRDNAKNTVYLQMNSLKPEDTAVYYCNARYPRYYRGVIQYDYWGQGTQVTVSS,low polyreactivity
7,QVQLVESGGGLVQAGGSLRLSCAASGFTFYTNAMGWYRPAPWKERELVAAIYARTGRTYYADSVKGRFTISRDNAKNTVFLQMNSLKPEDTAVYYCAKDRQSSSTDYGYWGQGTQVTVSS,high polyreactivity
8,QVQLVESGGGLVQAGGSLRLSCAASGFTFYTYAMRLYRQAPGKERELVAAISKSGGSTYYADSVKGRFTISRDNAKNTVYLQMNSLKPEDTAVYYCAAVVVYFDEYDYWGQGTQVTVSS,low polyreactivity
9,QVQLVESGGGLVQAGGSLRLSCAASGFTFYVNAMGWYRQAPGKERELVAAISSRGGSTYYADSVKGRFTISRDNAKNTVYLQMNSLKPEDTAVYYCATAKSYGEDSWGQGTQVTVSS,high polyreactivity
10,QVQLVESGGGLVQAGGSLRLSCAASGFTFYVNAMGWYRQAPGKERELVAAISSSGTRTYYADSVKGRFTISRDNAKNTVYLQMNSLKPEDTAVYYCAARGQAYSGDRMYYWGQGTLVTVSS,high polyreactivity
11,QVQLVESGGGLVQAGGSLRLSCAASGFTFYVNAMGWYRQAPGKERELVAAISSSGTRTYYADSVKGRFTISRDNAKNTVYLQMNSLKPEDTAVYYCAARGQAYSGDRMYYWGQGTQVTVSS,high polyreactivity
12,QVQLVESGGGLVQAGGSLRLSCAASGFTFYWYAMGWYRQAPGKEREFVAAIDQSGGSTYYADSVKGRFTISRDNAKNTVYLQMNSLKPEDTAVYYCAKLYTIGYDYWGQGTQVTVSS,low polyreactivity
13,QVQLVESGGGLVQAGGSLRLSCAASGFTFYWYDMGWDRQAPGKEREFVAAIVQSGGSTYYADSVKGRFSISRDNAKITVYLQMKSLKPEDTAVYYGAARYILWDGDSWTEFDYWGQGTQVTVSS,low polyreactivity
14,QVQLVESGGGLVQAGGSLRLSCAASGFTFYYNAMGWYRQAPGKERELVAAISSNGGSTYYADSVKGRFTISRDNAKNTVYLQMNSLKPEDTAVYYCAAYPKSSRWDFESWGQGTQVTVSS,low polyreactivity
15,QVQLVESGGGLVQAGGSLRLSCAASGFTFYYNAMGWYRQAPGKERELVAGISGRGGTTYYADSVKGRFTISRDNAKNTVYLQMNSLKPEDTAVYYCAARKVRARSKFEYWGQGTQVTVSS,high polyreactivity
16,QVQLVESGGGLVQAGGSLRLSCAASGFTFYYYAMGWSRQAPGKERELVAAISSAGGRTYYADSVKGRFTISRDNAKNTVYLQMNSLKPEDTAVYYCAATIKAYPTPLLGDYWGQGTQVTVSS,high polyreactivity
17,QVQLVESGGGLVQAGGSLRLSCAASGFTFYYYAMGWYRQAPGKERELVAAINWDGRTYYADSVKGRFTISRDNAKNTVYLQMNTLKPEDTAVYYCAAGYYLLTYRYDYWGQGTQVTVSS,low polyreactivity
18,QVQLVESGGGLVQAGGSLRLSCAASGFTFYYYAMGWYRQAPGKERELVAAISSTGGSTYYADSVKGRFTISRDNAKNTVYLQMNSLKPEDSAVYYCNAAGYRYPGDYDYWGQGTQVTVSS,high polyreactivity
19,QVQLVESGGGLVQAGGSLRLSCAASGFTFYYYAMGWYRQAPGKERELVAAISTRDGNTYYADSVKGRFTISRDNAKNTVYLQMNSLKPEDTAVYYCAADYFRYYPYDYWGQGTQVTVSS,low polyreactivity
20,QVQLVESGGGLVQAGGSLRLSCAASGFTFYYYAMGWYRQAPGKERELVAGITGSGGRTYYADSVKGRFTISRDNAKNTVYLQMNSLKPEDTAVYYCNARSLWYDYWGQGTQVTVSS,high polyreactivity
21,QVQLVESGGGLVQAGGSLRLSCAASGFTFYYYAMGWYRQAPGKERELVASISWRGGSTYYADSVKGRFTISRDNAKITVYLQMNSLKPEDTAVYYCAAQKRGSPGYRRDYWGQGTQVTVSS,high polyreactivity
